Molecular target: the molecule itself
Assay: SAXS

B1: Ipomoea batatas BAM5 (sweet potato beta-amylase) (enzyme)
chain: APIPGVMPIGNYVSLYVMLPLGVVNADNVFPDKEKVEDELKQVKAGGCDGVMVDVWWGIIEAKGPKQYDWSAYRELFQLVKKCGLKIQAIMSFHQCGGNVGDAVFIPIPQWILQIGDKNPDIFYTNRAGNRNQEYLSLGVDNQRLFQGRTALEMYRDFMESFRDNMADFLKAGDIVDIEVGCGAAGELRYPSYPETQGWVFPGIGEFQCYDKYMVADWKEAVKQAGNADWEMPGKGAGTYNDTPDKTEFFRPNGTYKTDMGKFFLTWYSNKLIIHGDQVLEEANKVFVGLRVNIAAKVSGIHWWYNHVSHAAELTAGFYNVAGRDGYRPIARMLARHHATLNFTCLEMRDSEQPAEAKSAPQELVQQVLSSGWKEYIDVAGENALPRYDATAYNQMLLNVRPNGVNLNGPPKLKMSGLTYLRLSDDLLQTDNFELFKKFVKKMHADLDPSPNAISPAVLERSNSAITIDELMEATKGSRPFPWYDVTDMPVDGSNPFD
stoichiometry N: 4
